This is an account of results in patent US20190023792A1 (Innovent, published 2019).

For experiment [1], the target named is b-PD-1 monomer (human PD-1) (human) (UniProt Q15116). Nature of the experiment: MSD solution equilibrium titration, avid KD.
A further experiment addresses cynoPD-1_Fc (cyno) (UniProt B0LAJ3). Nature of the experiment: BLI (ForteBio), Fab in solution, cynoPD-1_Fc on sensor tip. In general terms: Biolayer interferometry detects binding as a change in optical thickness at a sensor tip.
The target of experiment [2] is T1, human PD-1 on cells (human, UniProt Q15116 25-288). Nature of the experiment: flow cytometry blocking assay, 100 nM control IgG on CHO cells with human PD-1, then PD-L2-FITC (remaining ligand signal). A general note: In flow cytometry, cells or beads pass a laser one at a time.
T1 sequence (Q15116 25-288 limits assumed): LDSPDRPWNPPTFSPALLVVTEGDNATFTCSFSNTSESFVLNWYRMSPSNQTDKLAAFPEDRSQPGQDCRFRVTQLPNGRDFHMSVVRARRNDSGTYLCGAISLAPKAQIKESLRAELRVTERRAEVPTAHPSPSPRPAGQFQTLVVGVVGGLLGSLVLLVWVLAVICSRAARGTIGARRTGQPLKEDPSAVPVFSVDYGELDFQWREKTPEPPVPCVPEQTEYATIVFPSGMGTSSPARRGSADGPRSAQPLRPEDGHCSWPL
Experiment [3] has as its target T1, human PD-1 on cells. Kind of experiment: flow cytometry on CHO cells with human PD-1, n=1. The procedure: Cells are then washed 3×, and are incubated with a secondary antibody (PE-labelled, at final concentration of 5 μg/ml) in PBS 1% BSA for 30 min on ice (protected from light). Cells are washed 3× and analyzed via flow cytometry. Flow cytometry is performed on an Accuri C6 system (BD Biosciences) and MFIs are calculated on the C6 software. EC50s are calculated on Graphpad software.

The target of experiment [4] is T1, human PD-1 on cells. Nature of the experiment: cell-based or functional assay.
For experiment [5], the target named is T1, human PD-1 on cells. Kind of experiment: cell-based or functional assay. This is another data set of the same source.
Experiment [6] has as its target T1, human PD-1 on cells. Nature of the experiment: flow cytometry blocking assay, 100 nM antibody on CHO cells with human PD-1, then PD-L2-FITC (remaining ligand signal). The protocol: CHO cells 0.2×10⁶ are incubated with the experimental antibody (100 nM) for 30 min in PBS 1% BSA on ice. […] Cells are washed 3× and analyzed via flow cytometry. Flow cytometry is performed on an Accuri C6 system (BD Biosciences) and MFIs are calculated on the C6 software. EC50 s are calculated on Graphpad software.

A further experiment addresses T2, human PD-1_His (human, UniProt Q15116 25-167, limits assumed).
T2 construct: also called hPD-1_HIS
Kind of experiment: BLI (ForteBio), hPD-1_HIS in solution, IgG on sensor tip. The protocol:
Briefly, ForteBio affinity measurements were performed by loading IgGs online onto AHQ sensors. Sensors were equilibrated off-line in assay buffer for 30 min and then monitored on-line for 60 seconds for baseline establishment. Sensors with loaded IgGs were exposed to 100 nM antigen for 5 min, afterwards they were transferred to assay buffer for 5 min for off-rate measurement. Kinetics was analyzed using the 1:1 binding model.

In experiment [7] the target is T3, b-PD-1 monomer (human PD-1) (human, UniProt Q15116 25-167, limits assumed, biotinylated (b-PD-1; detected with streptavidin), site not stated).
T3 construct: The antigen used for the avid KD is not described separately; also called antigen
T3 sequence (Q15116 25-167 limits assumed): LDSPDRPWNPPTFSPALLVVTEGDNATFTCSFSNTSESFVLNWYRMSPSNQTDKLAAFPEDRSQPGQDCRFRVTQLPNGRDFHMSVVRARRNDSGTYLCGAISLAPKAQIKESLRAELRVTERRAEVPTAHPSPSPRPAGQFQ
Kind of experiment: MSD solution equilibrium titration, monovalent KD. The protocol:
(§1) Equilibrium affinity measurements are performed as previously described (Estep, P., et al., MAbs, 2013.5 (2): p. 270-8). Solution equilibrium titrations (SET) are performed in PBS+0.1% IgG-Free BSA (PBSF) where antigen (b-PD-1 monomer) is held constant at 10-100 pM and is incubated with 3-to 5-fold serial dilutions of Fab or mAbs starting at 5-100 nM (experimental condition is sample dependent). Antibodies diluted at 20 nM in PBS are coated onto standard bind MSD-ECL plates overnight at 4° C. or at room temperature for 30 min. Plates are blocked with BSA for 30 min whilst shaking at 700 rpm. Plates are then washed 3× with wash buffer (PBSF+0.05% Tween 20). SET samples are applied and incubated on the plates for 150 s with shaking at 700 rpm followed by one wash. Antigen captured on a plate is detected with 250 ng/mL sulfotag-labeled streptavidin in PBSF by incubation on the plate for 3 min. The plates are washed three times with wash buffer and are then read on the MSD Sector Imager 2400 instrument using 1× Read Buffer T with surfactant. The percent free antigen is plotted as a function of titrated antibody in Prism and fit to a quadratic equation to extract the KD. To improve throughput, liquid handling robots are used throughout MSD-SET experiments, including for SET sample preparation.

For experiment [8], the target named is T3, b-PD-1 monomer (human PD-1). Nature of the experiment: MSD solution equilibrium titration, avid KD. The protocol: as §1
Another experiment has as its target T4, human PD-1_Fc (human, UniProt Q15116 25-167, limits assumed).
T4 construct: also called hPD-1_Fc
Nature of the experiment: BLI (ForteBio), Fab in solution, hPD-1_Fc on sensor tip.

Another experiment deals with cynoPD-1_Fc (cyno, UniProt B0LAJ3 25-170). Kind of experiment: BLI (ForteBio), Fab in solution, cynoPD-1_Fc on sensor tip.
cynoPD-1_Fc, sequence (B0LAJ3 entry or part of it limits assumed): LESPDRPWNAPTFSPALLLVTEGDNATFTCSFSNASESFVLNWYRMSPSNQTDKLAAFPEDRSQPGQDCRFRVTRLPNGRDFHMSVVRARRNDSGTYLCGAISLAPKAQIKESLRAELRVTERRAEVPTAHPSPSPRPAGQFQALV

T4 sequence (Q15116 25-167 limits assumed): as the sequence (Q15116 25-167 limits assumed) above
T2 sequence (Q15116 25-167 limits assumed): as above
cynoPD-1_Fc (cyno), sequence (B0LAJ3 entry or part of it limits assumed): as the sequence (B0LAJ3 entry or part of it limits assumed) above
b-PD-1 monomer (human PD-1) (human), sequence (Q15116 25-167 limits assumed): as the sequence (Q15116 25-167 limits assumed) above

Consider nivolumab (antibody), for which the Kd (commonly the constant that tells how readily two partners part at equilibrium) in [1] was determined as 0.005 nM.

Consider pembrolizumab Fab, for which, in the experiment with cynoPD-1_Fc (cyno), the Kd amounted to 0.47 nM. That is a sub-nanomolar value.

For nivolumab Fab, the Kd with cynoPD-1_Fc (cyno) came to 1.2 nM.

On to control IgG (antibody), for which, in the experiment with human PD-1 on cells [2], the MFI (PD-L2-FITC) is 183000 MFI.

B1: Antibody B S228P IgG4 (xd-16 B) (antibody, V domains shown)
VH: QVQLVQSGAEVKKPGSSVKVSCKASGGTFSSTAISWVRQAPGQGLEWMGGIWPSFGTASYAQKFQGRVTITADESTSTAYMELSSLRSEDTAVYYCARAEYSSTGIFDYWGQGTLVTVSS
VL: DIQMTQSPSSVSASVGDRVTITCRASQGISSWLAWYQQKPGKAPKLLISAASSLQSGVPSRFSGSGSGTDFTLTISSLQPEDFATYYCQQANHLPFTFGGGTKVEIKR
notes: also called xd-16 B (IgG4 S228P); xd-16 B IgG4
Turning to B1, the EC50 – broadly, the concentration at which the effect is half-maximal – with human PD-1 on cells [3] amounted to 1.46 nM. In the experiment with human PD-1 on cells [4], the “IL-2 secretion fold change vs. IgG control, 0.01 nM IgG” value was determined as 1.15 fold; the “IL-2 secretion fold change vs. IgG control, 0.1 nM IgG” value was 1.46 fold; the “IL-2 secretion fold change vs. IgG control, 1 nM IgG” value was found to be 2.18 fold; the “IL-2 secretion fold change vs. IgG control, 10 nM IgG” value stood at 2.39 fold. Besides, the “IL-2 secretion fold change vs. IgG control, 100 nM IgG” value with human PD-1 on cells [4] came out at 2.37 fold. Besides, in the experiment with human PD-1 on cells [5], the “IFNg secretion fold change vs. IgG control, 0.01 nM IgG” value came out at 1.09 fold; the “IFNg secretion fold change vs. IgG control, 0.1 nM IgG” value came to 1.59 fold; the “IFNg secretion fold change vs. IgG control, 1 nM IgG” value is 2.15 fold; the “IFNg secretion fold change vs. IgG control, 10 nM IgG” value came out at 2.17 fold. Besides, in the experiment with human PD-1 on cells [5], the “IFNg secretion fold change vs. IgG control, 100 nM IgG” value stood at 1.9 fold.

B2: xd-16 B, IgG1 format expressed in yeast (antibody, V domains shown)
VH: QVQLVQSGAEVKKPGSSVKVSCKASGGTFSSTAISWVRQAPGQGLEWMGGIWPSFGTASYAQKFQGRVTITADESTSTAYMELSSLRSEDTAVYYCARAEYSSTGIFDYWGQGTLVTVSS
VL: DIQMTQSPSSVSASVGDRVTITCRASQGISSWLAWYQQKPGKAPKLLISAASSLQSGVPSRFSGSGSGTDFTLTISSLQPEDFATYYCQQANHLPFTFGGGTKVEIK
notes: Tested as IgG1 expressed in yeast; also called Antibody B
In the case of B2, in the experiment with human PD-1 on cells [6], the “MFI (PD-L2-FITC)” value is 26400 MFI. For the same molecule, the figures for the Kd (with human PD-1_His; in [7]; in [8]) were 0.42 nM, 0.045 nM and approximately 0.0009 nM, respectively.

B3: xd-16 B, Fab format produced from IgG1 expressed in yeast (Fab, V domains shown)
VH: QVQLVQSGAEVKKPGSSVKVSCKASGGTFSSTAISWVRQAPGQGLEWMGGIWPSFGTASYAQKFQGRVTITADESTSTAYMELSSLRSEDTAVYYCARAEYSSTGIFDYWGQGTLVTVSS
VL: DIQMTQSPSSVSASVGDRVTITCRASQGISSWLAWYQQKPGKAPKLLISAASSLQSGVPSRFSGSGSGTDFTLTISSLQPEDFATYYCQQANHLPFTFGGGTKVEIK
notes: Fab produced from the yeast IgG1
Turning to B3, the values for the Kd in the experiment with human PD-1_Fc and in the experiment with cynoPD-1_Fc were 0.63 nM and 0.78 nM, respectively.

B4: xd-16 D, Fab format produced from IgG1 expressed in yeast (Fab, V domains shown)
VH: QVQLVQSGAEVKKPGSSVKVSCKASGGTFSSTAISWVRQAPGQGLEWMGGIWPSFDTANYAQKFRGRVTITADESTSTAYMELSSLRSEDTAVYYCARAEYSSTGTFDYWGQGTLVTVSS
VL: DIQMTQSPSSVSASVGDRVTITCRASQGISSWLAWYQQKPGKAPKLLISAASSLQSGVPSRFSGSGSGTDFTLTISSLQPEDFATYYCQQANHLPFTFGGGTKVEIK
notes: as for B3
Turning to B4, the results for the Kd with human PD-1_Fc and with cynoPD-1_Fc were 0.99 nM and 1.2 nM, respectively.

B5: Antibody D S228P IgG4 (xd-16 D) (antibody, V domains shown)
VH: QVQLVQSGAEVKKPGSSVKVSCKASGGTFSSTAISWVRQAPGQGLEWMGGIWPSFDTANYAQKFRGRVTITADESTSTAYMELSSLRSEDTAVYYCARAEYSSTGTFDYWGQGTLVTVSS
VL: DIQMTQSPSSVSASVGDRVTITCRASQGISSWLAWYQQKPGKAPKLLISAASSLQSGVPSRFSGSGSGTDFTLTISSLQPEDFATYYCQQANHLPFTFGGGTKVEIKR
notes: also called xd-16 D (IgG4 S228P); xd-16 D IgG4
In the experiment with human PD-1 on cells [3], B5 had an EC50 of 1.47 nM. In other words, the single-digit nanomolar range.

B6: xd-16 E, IgG1 format expressed in yeast (antibody, V domains shown)
VH: QVQLVQSGAEVKKPGSSVKVSCKASGGTFSSTAISWVRQAPGQGLEWMGGIWPSFGTANYARKFQGRVTITADESTSTAYMELSSLRSEDTAVYYCARAEYSSTGIFDYWGQGTLVTVSS
VL: DIQMTQSPSSVSASVGDRVTITCRASQGISSWLAWYQQKPGKAPKLLISAASSLQSGVPSRFSGSGSGTDFTLTISSLQPEDFATYYCQQANHLPFTFGGGTKVEIK
notes: Tested as IgG1 expressed in yeast; also called Antibody E
For B6, the “MFI (PD-L2-FITC)” value in the experiment with human PD-1 on cells [6] amounted to 40900 MFI. Moreover, the values for the Kd (in the experiment with human PD-1_His; in experiment [7]; in [8]) were 0.56 nM, 0.15 nM and approximately 0.0009 nM, respectively.

B7: xd-16 C, IgG1 format expressed in yeast (antibody, V domains shown)
VH: QVQLVQSGAEVKKPGSSVKVSCKASGGTFSSTAISWVRQAPGQGLEWMGGIWPSFGTASYAQKFRGRVTITADESTSTAYMELSSLRSEDTAVYYCARAEYSSTGTFDYWGQGTLVTVSS
VL: DIQMTQSPSSVSASVGDRVTITCRASQGISSWLAWYQQKPGKAPKLLISAASSLQSGVPSRFSGSGSGTDFTLTISSLQPEDFATYYCQQANHLPFTFGGGTKVEIK
notes: Tested as IgG1 expressed in yeast; also called Antibody C
In the case of B7, in the experiment with human PD-1 on cells [6], the “MFI (PD-L2-FITC)” value amounted to 26500 MFI. For the same molecule, the dissociation constant (Kd) in the experiment with human PD-1_His worked out at 0.38 nM; in experiment [7] it was 0.05 nM; in experiment [8], 0.0025 nM.

B8: xd-16 D, IgG1 format expressed in yeast (antibody, V domains shown)
VH: QVQLVQSGAEVKKPGSSVKVSCKASGGTFSSTAISWVRQAPGQGLEWMGGIWPSFDTANYAQKFRGRVTITADESTSTAYMELSSLRSEDTAVYYCARAEYSSTGTFDYWGQGTLVTVSS
VL: DIQMTQSPSSVSASVGDRVTITCRASQGISSWLAWYQQKPGKAPKLLISAASSLQSGVPSRFSGSGSGTDFTLTISSLQPEDFATYYCQQANHLPFTFGGGTKVEIK
notes: Tested as IgG1 expressed in yeast; also called Antibody D
For the molecule B8, the “MFI (PD-L2-FITC)” value with human PD-1 on cells [6] stood at 40000 MFI. The Kd with human PD-1_His was determined as 0.65 nM; in experiment [7] it was 0.093 nM; in experiment [8], 0.0013 nM.

B9: xd-16 C, Fab format produced from IgG1 expressed in yeast (Fab, V domains shown)
VH: QVQLVQSGAEVKKPGSSVKVSCKASGGTFSSTAISWVRQAPGQGLEWMGGIWPSFGTASYAQKFRGRVTITADESTSTAYMELSSLRSEDTAVYYCARAEYSSTGTFDYWGQGTLVTVSS
VL: DIQMTQSPSSVSASVGDRVTITCRASQGISSWLAWYQQKPGKAPKLLISAASSLQSGVPSRFSGSGSGTDFTLTISSLQPEDFATYYCQQANHLPFTFGGGTKVEIK
notes: as for B3
As for B9, the Kd in the experiment with human PD-1_Fc is 0.57 nM; in the experiment with cynoPD-1_Fc, 0.73 nM.

B10: xd-16 E, Fab format produced from IgG1 expressed in yeast (Fab, V domains shown)
VH: QVQLVQSGAEVKKPGSSVKVSCKASGGTFSSTAISWVRQAPGQGLEWMGGIWPSFGTANYARKFQGRVTITADESTSTAYMELSSLRSEDTAVYYCARAEYSSTGIFDYWGQGTLVTVSS
VL: DIQMTQSPSSVSASVGDRVTITCRASQGISSWLAWYQQKPGKAPKLLISAASSLQSGVPSRFSGSGSGTDFTLTISSLQPEDFATYYCQQANHLPFTFGGGTKVEIK
notes: as for B3
As for B10, the Kd amounted to 0.86 nM with human PD-1_Fc and 1 nM with cynoPD-1_Fc.
